Measurements from patent US20260043816A1 (AC IMMUNE, published 2026).
Numbering of substitutions follows the chain as printed. Square brackets hold non-standard residues; d marks the D form. Ends that are not written are not given here. * marks the point of attachment. Biotin = O=C1N[C@H]2[C@H](CS[C@H]2CCCCC(=O)*)N1; pS = N[C@@H](COP(=O)(O)O)C(=O)O

Experiments:
Peptide 29 [1] = molecular target: T1, Peptide 29 (human, phosphoserine at pS409 and pS410 (human TDP-43 numbering, in the SEQ ID NO: 9 part); Trioxatridecan-succinamic acid (Ttds) linker between SEQ ID NO: 7 and SEQ ID NO: 9); assay: SPR Biacore 8K, antibody captured, peptide analyte, single-cycle kinetics, 1:1 fit
T1 peptide: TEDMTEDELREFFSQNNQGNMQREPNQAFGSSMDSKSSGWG
Procedure: (§1) Each cycle started with the non-covalent capture of the antibody which were diluted in running buffer to a final concentration of 5 μg/mL and injected for 120 sec with a flow rate of 10 μL/min. Antibodies being measured were captured in channels […], leaving Fc 1 as a blank Fc. Capture levels were evaluated following a 120 sec stabilization period after each antibody injection. ACI-7071-809F12-Ab1-rec2 was used as control, binding to the non-phosphorylated sequences represented in peptides 28 and 29.
(§2) Injections of peptides 28 or 29 were performed using single-cycle kinetics with increasing concentrations ranging from 1.2 to 100 nM prepared as a 3-fold serial dilution. Injections were performed with contact times of 300 sec/injection at a flow rate of 30 μL/min. A dissociation phase of 900 sec followed the final injection. Sensor surface was regenerated by two injection of 10 mM Glycine-HCl pH 1.7 at a flow rate of 10 μL/min for 60 sec, followed by a stabilization period of 120 sec. Results obtained from single-cycle kinetics were double-referenced using the blank Fc 1 and buffer cycles and evaluated by Biacore 8K evaluation software (Cytiva). The following kinetic parameters were obtained using the 1:1 binding fit model with variable Reflective Index (RI): association rate constant (ka), dissociation rate constant (kd), affinity constant (KD) and saturation response (Rmax).

Peptide 29 [2] = molecular target: T1, Peptide 29; assay: pairing sandwich ELISA, biotinylated antibody as detector, target titrated
Procedure: (§3) The capacity of antibodies to bind phospho TDP-43 and TDP-43 was determined using a sandwich enzyme-linked immunosorbent assay (ELISA), where each antibody was paired with a second TDP-43 antibody previously characterized for TDP-43 binding and performance in sandwich immunoassays, ACI-7071-809F12-Ab1-rec2 (as described in WO2020234473) or ACI-7069-636E5-Ab1 (as described in WO2020234473). ELISA plates (Nunc™ Edge™ 96-Well, Non-Treated, Flat-Bottom Microplate, ThermoFisher Scientific, Denmark) were coated with 5 μg/mL of anti-phospho TDP-43 or anti-TDP-43 antibodies in carbo/bicarbonate buffer, overnight at 4° C. Plates were then washed with 0.05% Tween-20/PBS and blocked with 1% bovine serum albumin (BSA) in 0.05% Tween-20/PBS for 1 hour at 37° C. The plates were then washed again as described above.
(§4) Serial-dilutions of target peptide or protein were then added to the plates. For assays with anti-phospho TDP-43 antibodies, one of four peptide conjugates (peptides 11, 23, 28, or 29) each composed of two TDP-43 sequences, one phosphorylated and one non-phosphorylated, conjugated together with a Trioxatridecan-succinamic acid linker (Ttds, binding regions and sequences shown in Table 4) were used. Peptides 11, 23, 28, and 29 were added in a 10-fold serial dilution starting at 0.5 μM. […] The plate was read at 450 nm using an ELISA plate reader (Tecan, Switzerland).

Peptide 29 [3] = molecular target: T1, Peptide 29; assay: pairing sandwich ELISA, antibody coated as capture, target titrated
Procedure: as §3, §4

Peptide 29 [4] = molecular target: T1, Peptide 29; assay: SPR Biacore 8K, antibody from purified hybridoma supernatant captured, peptide analyte, 1:1 fit
Procedure: as §1, §2

[5] = molecular target: T2, biotinylated TDP-43 phospho peptide 370-384 (pS375 and pS379) (human); assay: capture ELISA, antibody on anti-mouse IgG, biotinylated peptide
T2 peptide: Biotin-GNNSY[pS]GSN[pS]GAAIG
Procedure: (§5) Briefly, for capture detection in ELISA, wells of 96-well plates were coated with 5 μg/mL goat anti-mouse IgG (Fc gamma fragment specific), in carbonate buffer, overnight at 4° C. Plates were then washed with 0.05% Tween-20/PBS and blocked with 1% bovine serum albumin (BSA) in 0.05% Tween-20/PBS for 1 hour at 37° C. Phospho TDP-43 antibodies were then added at 5 μg/mL and incubated for 2 hours at 37° C. after which the plates were washed as described above. Biotinylated peptides representing each of the phospho sites, or non-phosphorylated, were incubated at 0.5 mM in 0.1% BSA and PBS for 1 hour at 37° C. after which the plates were washed. A streptavidin-HRP-conjugate (R&D Systems, Minnesota, United States) was added at 1/200 dilution in 0.05% Tween-20/1% BSA in PBS for 45 minutes in the dark at ambient temperature. After the final wash, plates were incubated with TMB (Sigma-Aldrich, Switzerland), an HRP substrate solution, and read at 405 nm using an ELISA plate reader (Tecan, Switzerland).

[6] = molecular target: T3, biotinylated TDP-43 phospho peptide 370-384 (pS375) (human); assay: as above
T3 peptide: Biotin-GNNSY[pS]GSNSGAAIG
Procedure: as §5

[7] = molecular target: T4, biotinylated TDP-43 phospho peptide 370-384 (pS379) (human); assay: as above
T4 peptide: Biotin-GNNSYSGSN[pS]GAAIG
Procedure: as §5

[8] = molecular target: T5, biotinylated non-phosphorylated TDP-43 peptide 366-414 (human, biotin on the N-terminus); assay: as above
T5 peptide: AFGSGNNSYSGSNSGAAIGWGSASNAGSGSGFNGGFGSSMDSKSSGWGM
Procedure: as §5

[9] = molecular target: T6, recombinant full length TDP-43 (SEQ ID NO: 1, FL TDP-43) (human, UniProt Q13148 1-414); assay: pairing sandwich ELISA, antibody coated as capture, FL TDP-43 titrated
T6 construct: also called recombinant human soluble FL TDP-43; soluble human TDP-43
Procedure: as §3
Serial-dilutions of target peptide or protein were then added to the plates. For assays with anti-phospho TDP-43 antibodies, one of four peptide conjugates (peptides 11, 23, 28, or 29) each composed of two TDP-43 sequences, one phosphorylated and one non-phosphorylated, conjugated together with a Trioxatridecan-succinamic acid linker (Ttds, binding regions and sequences shown in Table 4) were used. Peptides 11, 23, 28, and 29 were added in a 10-fold serial dilution starting at 0.5 μM. For assays with TDP-43 antibodies only, recombinant full length TDP-43 (SEQ ID NO: 1, FL TDP-43) was diluted 3-fold from 21.9 pM. Plates were incubated for 1 hour at 37° C., and then washed. […] PEG-biotinylated phospho TDP-43 or TDP-43 antibodies were then respectively added to the wells and incubated for 1 hour at 37° C., after which the plates were washed. Horseradish peroxidase (HRP)-conjugated streptavidin (R&D Systems, Switzerland) was added at 1/200 dilution in 1% BSA and 0.05% Tween-20/PBS for 45 min at room temperature. […] The plate was read at 450 nm using an ELISA plate reader (Tecan, Switzerland).

[10] = molecular target: T6, recombinant full length TDP-43 (SEQ ID …); assay: pairing sandwich ELISA, biotinylated antibody as detector, FL TDP-43 titrated
Procedure: as §3, §4

[11] = molecular target: T7, biotinylated TDP-43 phospho peptide 401-413 (pS409) (human); assay: capture ELISA, antibody on anti-mouse IgG, biotinylated peptide
T7 peptide: Biotin-FGSSMDSK[pS]SGWG
Procedure: as §5

[12] = molecular target: T8, biotinylated TDP-43 phospho peptide 401-413 (pS410) (human); assay: as above
T8 peptide: Biotin-FGSSMDSKS[pS]GWG
Procedure: as §5

[13] = molecular target: T9, biotinylated TDP-43 phospho peptide 401-413 (pS409 and pS410) (human); assay: as above
T9 peptide: Biotin-FGSSMDSK[pS][pS]GWG
Procedure: as §5

B1: ACI-8072-946.8H6-Ab1 (antibody, V domains shown)
VH: EEHLVESGGGLVKPGGSLKLSCAASGFTFSDYGMQWVRQAPEKGLEWVAYISSGSSTIYYEDTVKGRFTISRDNAKNTLFLQMTSLRSEDTAMYYCVRPYDNYGQGTLVTVSA
VL: DVLMTQTPLSLPVSLGDQASISCRSSQSIVHSNGNTYLEWYLQKPGQSPKLLIYKVSNRFSGVPDRFSGSGSGTDFTLKISRVEAEDVGVYYCFQGSHVPRTFGGGTKLEIK
notes: also called 946.8H6D10; pS409/pS410 TDP-43 antibody
Peptide 29 [1]
  Kd: 3.28 nM
  koff: 0.00469 s⁻¹
  kon: 1.43e+06 M⁻¹ s⁻¹
Peptide 29 [2]
  EC50: 1.12 nM
Peptide 29 [3]
  EC50: 0.111 nM

B2: ACI-8072-946.9D6-Ab1 (antibody, V domains shown)
VH: B1 VH
VL: DIVLTQSPASLAVSLGQRATISCRASKSVSTSGYSYMHWYQQKPGQPPKLLIYLASNLESGVPARFSGSGSGTDFTLNIHPVEEEDAATYYCQHSRELPWTFGGGTKLEIK
notes: Data marked * were generated with hybridoma / purified hybridoma supernatant; also called 946.9D6F3
Peptide 29 [4]
  Kd: 2.29 nM
  koff: 0.000707 s⁻¹
  kon: 309000 M⁻¹ s⁻¹

B3: ACI-8072-946.4G5-Ab1 (antibody, V domains shown)
VH: B1 VH with E2V, H3Q, Q35H, E61A, I70M, V97S, D101G
VL: B1 VL with V88L
notes: also called 946.4G5F1; pS409/pS410 TDP-43 antibody
Peptide 29 [1]
  Kd: 1.68 nM
  koff: 0.000817 s⁻¹
  kon: 487000 M⁻¹ s⁻¹
Peptide 29 [2]
  EC50: 1.96 nM
Peptide 29 [3]
  EC50: 0.196 nM

B4: ACI-8071-943.7H9-Ab1 (antibody, V domains shown)
VH: EIQLQQSGTVMARPGASVKMSCKTSGYIFTNYWMHWVKQRPGQGLDWIGTIYPGNSDTDYNQNFKGKAKLTAVTSASTAYMELSSLTNEDSAVYFCIRGGWGGFPYWGQGTLVTVSA
VL: DVVMTQIPLSLPVSLGDQASISCRSSQRLVHSNGNTYLHWYLQKPGQSPKFLIHKVSNRFSGVPDRFSGSGSGTDFTLKIRRVEAEDLGVYFCCQSTHVPYTFGGGTKLEIK
notes: also called 943.7H9H8; pS403/pS404 TDP-43 antibody
[5]
  binding result: no binding (tested: peptide at 0.5 mM)
[6]
  binding result: no binding (tested: peptide at 0.5 mM)
[7]
  binding result: no binding (tested: peptide at 0.5 mM)
[8]
  binding result: no binding (tested: peptide at 0.5 mM)

B5: ACI-7069-636E5-Ab1 (as described in WO2020234473) (antibody, V domains shown)
VH: EVHLVESGGDLVMPGGSLKLSCAASGFTFSNYGMSWVRQTPDKRLEWVATISSGGKYINYLDSLKGRFTISRDNAKNTLYLQMSSLKSEDTAMYYCAKDYGSGWAWFAYWGQGTLVTVSA
VL: QLVLTQSSSASFSLGASAKLTCTLSSQHSTYTIEWYQQQPLKPPKYVMELKKDGSHSTGDGIPDRFSGSSSGADRYLSISNIQPEDEAIYICGVGDTIKEQFVYVFGGGTKVTVL
notes: also called 636E5B8
[9]
  EC50: 1.16 nM
[10]
  EC50: 0.07 nM

B6: ACI-8071-943.7D3-Ab1 (antibody, V domains shown)
VH: QVQLQQPGTELVKPGASVKLSCKASGYTFTRYWMHWMKQRPGQGLEWIGNINPSDGGTNYNEKFKNKASLTVDKSSSTAYMQLSRLTSEDSAVYYCARRGSGYWGQGTTLTVSS
VL: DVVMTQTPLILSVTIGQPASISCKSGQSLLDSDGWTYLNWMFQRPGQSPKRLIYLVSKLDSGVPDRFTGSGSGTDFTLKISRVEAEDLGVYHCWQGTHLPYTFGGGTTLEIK
notes: also called 943.7D3E2; pS403/pS404 TDP-43 antibody
[5]
  binding result: no binding (tested: peptide at 0.5 mM)
[6]
  binding result: no binding (tested: peptide at 0.5 mM)
[7]
  binding result: no binding (tested: peptide at 0.5 mM)
[8]
  binding result: no binding (tested: peptide at 0.5 mM)

B7: ACI-8071-943.2E6-Ab1 (antibody, V domains shown)
VH: B6 VH with R31S, M37V, S54I, D55N, G56S, G57D, N66T, S69T, R85S
VL: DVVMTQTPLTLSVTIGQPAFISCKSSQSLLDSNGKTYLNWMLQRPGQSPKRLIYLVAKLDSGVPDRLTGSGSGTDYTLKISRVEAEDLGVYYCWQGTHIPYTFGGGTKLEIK
notes: also called 943.2E6E10; pS403/pS404 TDP-43 antibody
[5]
  binding result: no binding (tested: peptide at 0.5 mM)
[6]
  binding result: no binding (tested: peptide at 0.5 mM)
[7]
  binding result: no binding (tested: peptide at 0.5 mM)
[11]
  binding result: no binding (tested: peptide at 0.5 mM)
[12]
  binding result: no binding (tested: peptide at 0.5 mM)
[13]
  binding result: no binding (tested: peptide at 0.5 mM)
[8]
  binding result: no binding (tested: peptide at 0.5 mM)

B8: ACI-8071-943.12A8-Ab1 (antibody, V domains shown)
VH: EVQLVESGGGLVHPKGSLQLSCAASGFTFNTYTMHWVRQAPGKGLEWVARIRSKRSNYATYYADSVKDRFTISRDDSQSMLYLQMNNLKTEDTAIYYCVRGTGSYWGQGTSVTVSS
VL: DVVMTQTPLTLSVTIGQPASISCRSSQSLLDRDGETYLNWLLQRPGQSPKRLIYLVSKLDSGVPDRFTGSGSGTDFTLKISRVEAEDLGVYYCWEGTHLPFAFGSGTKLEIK
notes: also called 943.12A8B4; pS403/pS404 TDP-43 antibody
[5]
  binding result: no binding (tested: peptide at 0.5 mM)
[6]
  binding result: no binding (tested: peptide at 0.5 mM)
[7]
  binding result: no binding (tested: peptide at 0.5 mM)
[11]
  binding result: no binding (tested: peptide at 0.5 mM)
[12]
  binding result: no binding (tested: peptide at 0.5 mM)
[13]
  binding result: no binding (tested: peptide at 0.5 mM)
[8]
  binding result: no binding (tested: peptide at 0.5 mM)
